# Laboratory results: publication PMC4821243, “Heparin binding preference and structures in the fibroblast growth factor family parallel their evolutionary diversification” (Open Biology, 2016)
# B1: Histag-FGF20 (recombinant human fibroblast growth factor 20) (natural protein)
# chain: not shown
# notes: Fibroblast growth factor 20, human; Made in E. coli, so not glycosylated; source: Escherichia coli, expressed and purified as described [37]
# Target: the molecule itself
# Experiment: SEC-MALS; Superdex 200 HR10/300 in series with Wyatt Dawn8+ and Optilab T-rEX, 22°C; 100 µl, 100 µg protein; 150 mM NaCl with 50 mM HEPES or 50 mM Tris-Cl, pH 7.4; 0.75 ml/min
protein,measurement,value
B1,stoichiometry N,2
